B1: Arabidopsis thaliana cryptochrome 2 (CRY2, UniProt Q96524), residues 1-535 fused after the Gal4 DNA-binding domain (Gal4BD-CRY2(535)); mutagenized window 321-412, Q96524 (parent)
chain: MKMDKKTIVWFRRDLRIEDNPALAAAAHEGSVFPVFIWCPEEEGQFYPGRASRWWMKQSLAHLSQSLKALGSDLTLIKTHNTISAILDCIRVTGATKVVFNHLYDPVSLVRDHTVKEKLVERGISVQSYNGDLLYEPWEIYCEKGKPFTSFNSYWKKCLDMSIESVMLPPPWRLMPITAAAEAIWACSIEELGLENEAEKPSNALLTRAWSPGWSNADKLLNEFIEKQLIDYAKNSKKVVGNSTSLLSPYLHFGEISVRHVFQCARMKQIIWARDKNSEGEESADLFLRGIGLREYSRYICFNFPFTHEQSLLSHLRFFPWDADVDKFKAWRQGRTGYPLVDAGMRELWATGWMHNRIRVIVSSFAVKFLLLPWKWGMKYFWDTLLDADLECDILGWQYISGSIPDGHELDRLDNPALQGAKYDPEGEYIRQWLPELARLPTEWIHHPWDAPLTVLKASGVELGTNYAKPIVDIDTARELLAKAISRTREAQIMIGAAPDEIVADSFEALGANTIKEPGLCPSVSSNDQQVPSAV

Our source for the enrichment and response values is paper PMC12212125, “Constitutively active Arabidopsis cryptochrome two alleles identified using yeast selection and deep mutational scanning” (The Journal of Biological Chemistry, 2025).

The first assay covers variants of B1. The experiment in a line: yeast two-hybrid growth selection (MaV203; Gal4BD-CRY2(1-535) library x Gal4AD-CIB1; URA3 reporter on SC -Trp/-Leu/-Ura) in the dark, deep sequencing before and after selection, Enrich2 scoring; three independent screens (one at 48 h, two …). The conditions noted are these: with CIB1 (CRYPTOCHROME-INTERACTING BASIC-HELIX-LOOP-HELIX 1), dark (no blue light), screens 1, 3 and 4, Svar > 0 = enriched under dark selection for CRY2-CIB1 two-hybrid growth (URA3 reporter), < 0 = depleted, relative to wild type (whose scores are 0). 'The Enrich2 software calculates, parent: 0, not an affinity, scale: Enrich2 score, numbering: uniprot, sequence starts at 1.
For T336A, the enrichment is -1.84. On the same count and under the same terms, to T336P belongs -0.907. On the same count and under the same terms, to Q333H belongs 0.227; to Q333R, 1.48. Same read-out and setting: in the case of S401A it was -0.239; in that of S401F, 2.4; in that of S401T, 2.02. With S401Y, the enrichment was 0.744. On the same count and under the same terms, in the case of K379E it was -0.743.

For the variant K379L, the enrichment is 0.965. Still for that read-out and setting: to Y380F belongs 1.2. The same measure, in the same setting: in the case of W349G it was 0.303; in that of L395H, -0.769; in that of L395Q, 2.71.

Turning to N356K, the enrichment is -0.299. On the same count and under the same terms, in the case of N356D it was 2.44; in that of N356T, 0.0153; in that of Y338D, -1.31.

On to Y338N, for which the enrichment was -1.68.

For the variant V362G, the enrichment was -1.16.

As for V362I, the enrichment is 0.151.

Take V362A: the enrichment was -0.304. With D389Y, the enrichment is -0.572.

D389G: the enrichment is -1.23. Same read-out and setting: in the case of A366D it was -0.566; in that of A366T, 1; in that of L370I, -0.966.

D406G: the enrichment was -0.172. Still for that read-out and setting: to D406V belongs 2.12.

Turning to W382R, the enrichment was -1.18.

Regarding R359G, the enrichment was -0.386. On the same count and under the same terms, to W374R belongs 1.5; to W374L, 1.65; to H355L, -0.0587. As to H355P, the enrichment was 0.249.

In the case of P373T, the enrichment was 0.0155. On the same count and under the same terms, to M378I belongs -0.703; to L348I, -0.199. Same read-out and setting: in the case of S403N it was 0.435; in that of S403R, 2.21. In the case of V367E, the enrichment was -0.759. Still for that read-out and setting: to V367L belongs 1.55; to M354K, -1.63.

Take M354T: the enrichment was 0.533. Same read-out and setting: to A388D belongs -0.472; to A388S, 0.429; to Q398P, -0.641.

For the variant Q398E, the enrichment was 1.41. On the same count and under the same terms, in the case of Q398R it was 2.52; in that of Q398L, 1.96; in that of I394N, 2.39. As for I394F, the enrichment is 2.63. On the same count and under the same terms, in the case of L390W it was 2.28; in that of L390F, 1.66. For the variant P405T, the enrichment was 0.224.

Turning to P405A, the enrichment was 0.742. On the same count and under the same terms, to V360E belongs 0.367.

On to V360G, for which the enrichment is -1.05. Consider D324V, for which the enrichment was 2.44. For D324E, the enrichment was 0.371.

On to I361F, for which the enrichment is -0.00476. With E347A, the enrichment was 0.457. The same measure, in the same setting: to L385P belongs -1.22. The same measure, in the same setting: to L385V belongs 2.7. Still for that read-out and setting: to R332K belongs -1.23; to R332S, 0.5; to G402K, 2.35. On to T351A, for which the enrichment is -1.04. On the same count and under the same terms, in the case of L386V it was 0.483. Same read-out and setting: to W331G belongs -1.69.

Take W331R: the enrichment was -1.72. Same read-out and setting: to A350T belongs -0.108; to L372H, -1.45; to Y399N, 2.41. The same measure, in the same setting: in the case of D326E it was -1.28; in that of W321R, 0.946. V325A: the enrichment was -0.239. On the same count and under the same terms, in the case of T384K it was -0.721; in that of F369T, -2.07. The same measure, in the same setting: in the case of D387G it was -1.18; in that of G344V, -1.21. Same read-out and setting: to C392F belongs -0.128; to C392G, -0.321; to R346K, 0.452. In the case of R346I, the enrichment is -1.1.

Take K329N: the enrichment was 0.546. On the same count and under the same terms, to K329R belongs 0.366; to I358L, 0.903. In the case of I358T, the enrichment was -0.414.

Regarding G396R, the enrichment was 2.19.

On to G396A, for which the enrichment is -1.05. With A330V, the enrichment is -1.26. The same measure, in the same setting: in the case of W397S it was -1.08; in that of F381C, 0.0158. The same measure, in the same setting: in the case of F381V it was -0.0604.

For I404Y, the enrichment was 1.4. Still for that read-out and setting: in the case of I404T it was -0.507. On the same count and under the same terms, in the case of L371R it was 1.98; in that of L371P, -1.4; in that of D393G, 2.3. On the same count and under the same terms, to K368E belongs 2.88.

As for K368N, the enrichment was 2.25. On the same count and under the same terms, in the case of F328P it was 0.453. The same measure, in the same setting: in the case of D342N it was -0.898; in that of D342E, -1.69. Still for that read-out and setting: in the case of L340V it was -0.561; in that of H408L, 1.61.

In another assay the parent is B1. Briefly: yeast two-hybrid, quantitative GalUAS-lacZ (beta-galactosidase) reporter assay. The conditions noted are these: with itself; dark; strain AH109; parent: 25; read off a plot. On the technique in general: A reporter such as luciferase makes a cellular process visible.
Turning to MKMDKKTIVWFRRDLRIEDNPALAAAAHEGSVFPVFIWCPEEEGQFYPGRASRWWMKQSLAHLSQSLKALGSDLTLIKTHNTISAILDCIRVTGATKVVFNHLYDPVSLVRDHTVKEKLVERGISVQSYNGDLLYEPWEIYCEKGKPFTSFNSYWKKCLDMSIESVMLPPPWRLMPITAAAEAIWACSIEELGLENEAEKPSNALLTRAWSPGWSNADKLLNEFIEKQLIDYAKNSKKVVGNSTSLLSPYLHFGEISVRHVFQCARMKQIIWARDKNSEGEESADLFLRGIGLREYSRYICFNFPFTHEQSLLSHLRFFPWDADVDKFKAWRQGRTGYPLVDAGMRELWATGWMHNRIRVIVSSFAVKFLLLPWKWGRKYFWDTLLDADLECDILGWQYISGSIPDGHELDRLDNPALQGAKYDPEGEYIRQWLPELARLPTEWIHHPWDAPLTVLKASGVELGTNYAKPIVDIDTARELLAKAISRTREAQIMIGAAPDEIVADSFEALGANTIKEPGLCPSVSSNDQQVPSAV [chain 1 M378R], the response turned out to be 210 Miller units.

The assay is the same for the next values; noted with them: with itself; light; strain AH109; parent: 220; read off a plot.
As for MKMDKKTIVWFRRDLRIEDNPALAAAAHEGSVFPVFIWCPEEEGQFYPGRASRWWMKQSLAHLSQSLKALGSDLTLIKTHNTISAILDCIRVTGATKVVFNHLYDPVSLVRDHTVKEKLVERGISVQSYNGDLLYEPWEIYCEKGKPFTSFNSYWKKCLDMSIESVMLPPPWRLMPITAAAEAIWACSIEELGLENEAEKPSNALLTRAWSPGWSNADKLLNEFIEKQLIDYAKNSKKVVGNSTSLLSPYLHFGEISVRHVFQCARMKQIIWARDKNSEGEESADLFLRGIGLREYSRYICFNFPFTHEQSLLSHLRFFPWDADVDKFKAWRQGRTGYPLVDAGMRELWATGWMHNRIRVIVSSFAVKFLLLPWKWGRKYFWDTLLDADLECDILGWQYISGSIPDGHELDRLDNPALQGAKYDPEGEYIRQWLPELARLPTEWIHHPWDAPLTVLKASGVELGTNYAKPIVDIDTARELLAKAISRTREAQIMIGAAPDEIVADSFEALGANTIKEPGLCPSVSSNDQQVPSAV [chain 1 M378R], the response is 240 Miller units.
